Results reported in patent US20060204492A1 (published 2006).
Where two headings read alike, the source gives them in different places.

Tests used:
[1] = biological target: T1, integrin αvβ3, purified from human placenta (human, UniProt P06756 31-1048; P05106 27-788); assay: SPR (BIAcore), purified Fab over immobilized αvβ3
T1 construct: mature; Native heterodimer, immobilized on ELISA plates or on the BIAcore chip; biotinylated in capture lift and capture ELISA screens; also called αvβ3 receptor; vitronectin receptor
T1 sequence (P06756 31-1048, form in doubt, chain 1 of 2): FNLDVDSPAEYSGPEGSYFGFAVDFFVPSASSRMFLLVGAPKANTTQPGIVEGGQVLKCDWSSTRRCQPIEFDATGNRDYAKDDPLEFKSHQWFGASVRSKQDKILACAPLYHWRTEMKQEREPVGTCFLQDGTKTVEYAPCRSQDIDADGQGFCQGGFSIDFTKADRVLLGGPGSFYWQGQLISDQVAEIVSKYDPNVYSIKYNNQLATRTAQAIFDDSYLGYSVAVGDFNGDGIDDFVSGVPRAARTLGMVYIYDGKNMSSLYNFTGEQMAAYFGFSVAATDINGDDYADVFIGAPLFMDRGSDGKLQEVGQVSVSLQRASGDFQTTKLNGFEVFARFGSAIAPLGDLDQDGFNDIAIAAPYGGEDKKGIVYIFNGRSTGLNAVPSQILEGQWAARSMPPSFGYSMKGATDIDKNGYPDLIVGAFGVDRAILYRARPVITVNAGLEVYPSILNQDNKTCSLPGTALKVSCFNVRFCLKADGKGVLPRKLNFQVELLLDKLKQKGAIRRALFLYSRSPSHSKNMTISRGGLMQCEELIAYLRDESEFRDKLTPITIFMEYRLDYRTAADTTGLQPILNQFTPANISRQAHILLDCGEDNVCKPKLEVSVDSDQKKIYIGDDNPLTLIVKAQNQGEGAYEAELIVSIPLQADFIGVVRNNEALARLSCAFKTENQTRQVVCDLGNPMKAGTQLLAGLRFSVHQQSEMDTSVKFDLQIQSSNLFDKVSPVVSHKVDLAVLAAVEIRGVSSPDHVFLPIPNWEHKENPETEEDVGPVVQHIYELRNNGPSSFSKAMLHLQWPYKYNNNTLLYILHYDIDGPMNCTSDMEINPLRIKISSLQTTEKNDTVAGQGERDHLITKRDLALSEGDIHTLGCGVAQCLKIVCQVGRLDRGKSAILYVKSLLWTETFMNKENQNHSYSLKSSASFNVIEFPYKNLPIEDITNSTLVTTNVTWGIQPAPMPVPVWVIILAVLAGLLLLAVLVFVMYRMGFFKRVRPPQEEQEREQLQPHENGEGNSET
T1 sequence (P05106 27-788, form in doubt, chain 2 of 2): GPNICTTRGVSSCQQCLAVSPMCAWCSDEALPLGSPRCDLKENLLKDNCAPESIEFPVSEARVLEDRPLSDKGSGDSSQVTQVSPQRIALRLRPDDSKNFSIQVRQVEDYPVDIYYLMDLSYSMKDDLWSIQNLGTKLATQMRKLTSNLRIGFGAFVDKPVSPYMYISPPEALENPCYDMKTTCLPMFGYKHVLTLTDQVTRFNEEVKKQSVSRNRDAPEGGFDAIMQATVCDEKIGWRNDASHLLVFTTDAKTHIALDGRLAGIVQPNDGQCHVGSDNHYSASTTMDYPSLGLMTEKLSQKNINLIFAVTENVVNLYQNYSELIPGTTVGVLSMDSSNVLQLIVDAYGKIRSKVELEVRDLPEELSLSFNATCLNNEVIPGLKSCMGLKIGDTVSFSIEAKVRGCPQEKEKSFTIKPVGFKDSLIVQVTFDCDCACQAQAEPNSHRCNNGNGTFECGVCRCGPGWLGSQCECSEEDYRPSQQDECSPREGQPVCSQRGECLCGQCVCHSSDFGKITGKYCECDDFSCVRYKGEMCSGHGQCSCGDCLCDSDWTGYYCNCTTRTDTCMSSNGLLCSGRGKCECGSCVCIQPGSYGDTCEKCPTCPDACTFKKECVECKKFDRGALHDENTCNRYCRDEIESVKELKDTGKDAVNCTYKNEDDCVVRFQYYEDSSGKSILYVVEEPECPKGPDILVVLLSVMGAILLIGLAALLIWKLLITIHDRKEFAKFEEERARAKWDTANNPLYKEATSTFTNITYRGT
Description: (§1) The affinities of select variants were further characterized by utilizing surface plasmon resonance (BIAcore) to measure the association and dissociation rates of purified Fab with immobilized αᵥβ₃. […] To obtain association rate constants (kₒₙ), the binding rate at five different Fab concentrations, ranging from 5-40 μg/ml in 50 mM Tris-HCl, pH 7.4, 100 mM NaCl, 2 mM CaCl₂, and 1 mM MgCl₂, was determined at a flow rate of 10 μl/min. Dissociation rate constants (koff) were the average of five measurements obtained by analyzing the dissociation phase at an increased flow rate (40 μl/min). Sensorgrams were analyzed with the BIAevaluation 2.1 program (Pharmacia). Residual Fab was removed after each measurement with 10 mM HCl, 2 mM CaCl₂ and 1 mM MgCl₂.

[2] = biological target: T1, integrin αvβ3, purified from human …; assay: SPR (BIAcore), purified Fab over immobilized αvβ3; remark: listed apart in the source
Description: as §1

[3] = biological target: T1, integrin αvβ3, purified from human …; assay: SPR (BIAcore), purified Fab over immobilized αvβ3; remark: listed apart in the source
[4] = biological target: T1, integrin αvβ3, purified from human …; assay: ELISA titration of Fab on immobilized αvβ3
Description: Just prior to use, the plates were washed two times and were then incubated 1 h at 25° C. with various dilutions of Fab. […] All dilutions and washes were in 50 mM Tris-HCl, pH 7.4, 100 mM NaCl, 2 mM CaCl₂, and 1 mM MgCl₂.

| Binder | Kd [1] [nM] | koff [1] [s⁻¹] | kon [1] [M⁻¹ s⁻¹] | Kd [2] [nM] | koff [2] [s⁻¹] | kon [2] [M⁻¹ s⁻¹] | fold greater affinity than parent LM609 grafted antibody [3] [fold] | fold greater association rate than parent [3] [fold] | fold slower dissociation rate than parent [3] [fold] | fold greater affinity than LM609 grafted antibody Fab [3] [fold] | fold enhanced affinity over parent LM609 grafted antibody [3] [fold] | fold enhanced binding over parent LM609 grafted antibody [4] [fold] |
| --- | --- | --- | --- | --- | --- | --- | --- | --- | --- | --- | --- | --- |
| LM609 grafted antibody Fab (Fab, V domains shown, Fab expressed from M13 phage vector, human kappa chain, peptide tag on the carboxyl-terminus of the heavy chain; also called LM609 grafted Fab; parent LM609 grafted antibody) VH: QVQLVESGGGVVQPGRSLRLSCAASGFTFSSYDMSWVRQAPGKGLEWVAKVSSGGGSTYYLDTVQGRFTISRDNSKNTLYLQMNSLRAEDTAVYYCARHNYGSFAYWGQGTTVTVSS VL: EIVLTQSPATLSLSPGERATLSCQASQSISNHLHWYQQRPGQAPRLLIRYRSQSISGIPARFSGSGSGTDFTLTISSLEPEDFAVYYCQQSGSWPHTFGGGTKVEIK | 27.6 | 0.00497 | 180000 | 27.6 | 0.00497 | 180000 |  |  |  |  |  |  |
| LM609 grafted antibody combinatorial clone C29 (Fab, V domains shown, Fab) VH: QVQLVESGGGVVQPGRSLRLSCAASGFTFSSYDMSWVRQAPGKGLEWVAKVSSGGGSTYYPDTVQGRFTISRDNSKNTLYLQMNSLRAEDTAVYYCARHNHGSFYSWGQGTTVTVSS VL: EIVLTQSPATLSLSPGERATLSCQASQSISNHLHWYQQRPGQAPRLLIRYRSQSISGIPARFSGSGSGTDFTLTISSLEPEDFAVYYCQQSGSWPLTFGGGTKVEIK |  |  |  | 0.5 | 0.000343 | 675000 | ~55 | 2 to 4 | > 10 |  |  |  |
| LM609 grafted antibody combinatorial clone C59 (Fab, V domains shown, Fab) VH: QVQLVESGGGVVQPGRSLRLSCAASGFTFSSYDMSWVRQAPGKGLEWVAKVSSGGGSTYYPDTVQGRFTISRDNSKNTLYLQMNSLRAEDTAVYYCARHNYGSFADWGQGTTVTVSS VL: EIVLTQSPATLSLSPGERATLSCQASQSISNFLHWYQQRPGQAPRLLIRYRSQSISGIPARFSGSGSGTDFTLTISSLEPEDFAVYYCQQSGSWPHTFGGGTKVEIK |  |  |  | 0.5 | 0.000137 | 265000 |  |  | > 10 |  |  |  |
| LM609 grafted antibody combinatorial clone C37 (Fab, V domains shown, Fab) VH: QVQLVESGGGVVQPGRSLRLSCAASGFTFSSYDMSWVRQAPGKGLEWVAKVSSGGGSTYYLDTVQGRFTISRDNSKNTLYLQMNSLRAEDTAVYYCARHNYGSFYEWGQGTTVTVSS VL: EIVLTQSPATLSLSPGERATLSCQASQSISNHLHWYQQRPGQAPRLLIRYRSQSISGIPARFSGSGSGTDFTLTISSLEPEDFAVYYCQQSGSWPLTFGGGTKVEIK |  |  |  | 0.3 | 0.000147 | 448000 | 92 |  | > 10 | ~90 |  |  |
| LM609 grafted antibody combinatorial clone C176 (Fab, V domains shown, Fab) VH: QVQLVESGGGVVQPGRSLRLSCAASGFTFSSYDMSWVRQAPGKGLEWVAKVSSGGGSTYYPDTVQGRFTISRDNSKNTLYLQMNSLRAEDTAVYYCARHNYGSFATWGQGTTVTVSS VL: EIVLTQSPATLSLSPGERATLSCQASQSISNFLHWYQQRPGQAPRLLIRYRSQSISGIPARFSGSGSGTDFTLTISSLEPEDFAVYYCQQSGSWPHTFGGGTKVEIK |  |  |  | 0.9 | 0.000192 | 225000 |  |  | > 10 |  |  |  |
| LM609 grafted antibody combinatorial clone 2G4 (Fab, V domains shown, Fab) VH: QVQLVESGGGVVQPGRSLRLSCAASGFTFSSYDMSWVRQAPGKGLEWVAKVSSGGGSTYYLDTVQGRFTISRDNSKNTLYLQMNSLRAEDTAVYYCARHNYGSFASWGQGTTVTVSS VL: EIVLTQSPATLSLSPGERATLSCQASQSISNHLHWYQQRPGQAPRLLIRYRSQSISGIPARFSGSGSGTDFTLTISSLEPEDFAVYYCQQSGSWPLTFGGGTKVEIK |  |  |  | 0.4 | 0.000229 | 603000 |  |  | > 10 |  | > 50 |  |
| LM609 grafted antibody variant E64 (Fab, V domains shown, Fab) VH: QVQLVESGGGVVQPGRSLRLSCAASGFTFSSYDMSWVRQAPGKGLEWVAKVSSGGGSTYYLDTVEGRFTISRDNSKNTLYLQMNSLRAEDTAVYYCARHNYGSFAYWGQGTTVTVSS VL: EIVLTQSPATLSLSPGERATLSCQASQSISNHLHWYQQRPGQAPRLLIRYRSQSISGIPARFSGSGSGTDFTLTISSLEPEDFAVYYCQQSGSWPHTFGGGTKVEIK |  |  |  |  |  |  |  |  |  |  |  | > 3 |
| LM609 grafted antibody combinatorial clone 6D1 (Fab, V domains shown, Fab) VH: QVQLVESGGGVVQPGRSLRLSCAASGFTFSSYDMSWVRQAPGKGLEWVAKVSSGGGSTYYPDTVQGRFTISRDNSKNTLYLQMNSLRAEDTAVYYCARHNYGSFYSWGQGTTVTVSS VL: EIVLTQSPATLSLSPGERATLSCQASQSISNHLHWYQQRPGQAPRLLIRYRSQSISGIPARFSGSGSGTDFTLTISSLEPEDFAVYYCQQSGSWPLTFGGGTKVEIK |  |  |  | 0.4 | 0.000158 | 410000 |  |  | > 10 |  |  |  |
| LM609 grafted antibody combinatorial clone 6H6 (Fab, V domains shown, Fab) VH: QVQLVESGGGVVQPGRSLRLSCAASGFTFSSYDMSWVRQAPGKGLEWVAKVSSGGGSTYYLDTVQGRFTISRDNSKNTLYLQMNSLRAEDTAVYYCARHNHGSFASWGQGTTVTVSS VL: EIVLTQSPATLSLSPGERATLSCQASQSISNHLHWYQQRPGQAPRLLIRYRSQSISGIPARFSGSGSGTDFTLTISSLEPEDFAVYYCQQSGSWPLTFGGGTKVEIK |  |  |  | 0.4 | 0.000187 | 504000 |  |  | > 10 |  |  |  |
| LM609 grafted antibody combinatorial clone 17 (Fab, V domains shown, Fab) VH: QVQLVESGGGVVQPGRSLRLSCAASGFTFSSYDMSWVRQAPGKGLEWVAKVSSGGGSTYYLDTVQGRFTISRDNSKNTLYLQMNSLRAEDTAVYYCARHNYGSFASWGQGTTVTVSS VL: EIVLTQSPATLSLSPGERATLSCQASQSISNFLHWYQQRPGQAPRLLIRYRSQSISGIPARFSGSGSGTDFTLTISSLEPEDFAVYYCQQSGSWPHTFGGGTKVEIK |  |  |  | 0.5 | 0.000138 | 251000 |  |  | > 10 |  | > 50 |  |
| LM609 grafted antibody variant D101 (Fab, V domains shown, Fab) VH: QVQLVESGGGVVQPGRSLRLSCAASGFTFSSYDMSWVRQAPGKGLEWVAKVSSGGGSTYYLDTVQGRFTISRDNSKNTLYLQMNSLRAEDTAVYYCARHNYGSFDYWGQGTTVTVSS VL: EIVLTQSPATLSLSPGERATLSCQASQSISNHLHWYQQRPGQAPRLLIRYRSQSISGIPARFSGSGSGTDFTLTISSLEPEDFAVYYCQQSGSWPHTFGGGTKVEIK |  |  |  |  |  |  |  |  |  |  |  | > 3 |
| LM609 grafted antibody combinatorial clone 7 (Fab, V domains shown, Fab) VH: QVQLVESGGGVVQPGRSLRLSCAASGFTFSSYDMSWVRQAPGKGLEWVAKVSSGGGSTYYPDTVQGRFTISRDNSKNTLYLQMNSLRAEDTAVYYCARHNHGSFASWGQGTTVTVSS VL: EIVLTQSPATLSLSPGERATLSCQASQSISNFLHWYQQRPGQAPRLLIRYRSQSISGIPARFSGSGSGTDFTLTISSLEPEDFAVYYCQQSGSWPHTFGGGTKVEIK |  |  |  | 1.2 | 0.000236 | 204000 |  |  | > 10 |  |  |  |
| LM609 grafted antibody combinatorial clone 8F9 (Fab, V domains shown, Fab) VH: QVQLVESGGGVVQPGRSLRLSCAASGFTFSSYDMSWVRQAPGKGLEWVAKVSSGGGSTYYPDTVQGRFTISRDNSKNTLYLQMNSLRAEDTAVYYCARHNHGSFASWGQGTTVTVSS VL: EIVLTQSPATLSLSPGERATLSCQASQSISNHLHWYQQRPGQAPRLLIRYRSQSISGIPARFSGSGSGTDFTLTISSLEPEDFAVYYCQQSGSWPLTFGGGTKVEIK |  |  |  | 0.6 | 0.00028 | 475000 |  |  | > 10 |  |  |  |
| LM609 grafted antibody combinatorial clone C119 (Fab, V domains shown, Fab) VH: QVQLVESGGGVVQPGRSLRLSCAASGFTFSSYDMSWVRQAPGKGLEWVAKVSSGGGSTYYPDTVQGRFTISRDNSKNTLYLQMNSLRAEDTAVYYCARHNYGSFASWGQGTTVTVSS VL: EIVLTQSPATLSLSPGERATLSCQASQSISNHLHWYQQRPGQAPRLLIRYRSQSISGIPARFSGSGSGTDFTLTISSLEPEDFAVYYCQQSNSWPHTFGGGTKVEIK |  |  |  | 1.5 | 0.000316 | 215000 | 18 |  | > 10 |  |  |  |
| LM609 grafted antibody combinatorial clone V357D (Fab, V domains shown, Fab; V357D is a clone name, not a substitution) VH: QVQLVESGGGVVQPGRSLRLSCAASGFTFSSYDMSWVRQAPGKGLEWVAKVSSGGGSTYYLDTVQGRFTISRDNSKNTLYLQMNSLRAEDTAVYYCARHNYGSFADWGQGTTVTVSS VL: EIVLTQSPATLSLSPGERATLSCQASQSISNFLHWYQQRPGQAPRLLIRYRSQSISGIPARFSGSGSGTDFTLTISSLEPEDFAVYYCQQSGSWPHTFGGGTKVEIK |  |  |  | 0.5 | 0.00014 | 279000 |  |  | > 10 |  | > 50 |  |
| LM609 grafted antibody combinatorial clone 56 (Fab, V domains shown, Fab) VH: QVQLVESGGGVVQPGRSLRLSCAASGFTFSSYDMSWVRQAPGKGLEWVAKVSSGGGSTYYPDTVQGRFTISRDNSKNTLYLQMNSLRAEDTAVYYCARHNYGSFASWGQGTTVTVSS VL: EIVLTQSPATLSLSPGERATLSCQASQSISNFLHWYQQRPGQAPRLLIRYRSQSISGIPARFSGSGSGTDFTLTISSLEPEDFAVYYCQQSGSWPHTFGGGTKVEIK |  |  |  | 0.5 | 0.000135 | 266000 |  |  | > 10 |  |  |  |
| LM609 grafted antibody combinatorial clone 6G1 (Fab, V domains shown, Fab) VH: QVQLVESGGGVVQPGRSLRLSCAASGFTFSSYDMSWVRQAPGKGLEWVAKVSSGGGSTYYPDTVQGRFTISRDNSKNTLYLQMNSLRAEDTAVYYCARHNYGSFASWGQGTTVTVSS VL: EIVLTQSPATLSLSPGERATLSCQASQSISNHLHWYQQRPGQAPRLLIRYRSQSISGIPARFSGSGSGTDFTLTISSLEPEDFAVYYCQQSGSWPLTFGGGTKVEIK |  |  |  | 0.7 | 0.00028 | 389000 |  | 2 to 4 | > 10 |  |  |  |
